In test [1] the target is T1, monomeric human CSF1R ectodomain protein (human, UniProt P07333 20-517).
T1 construct: also called biotinylated monomeric human CSF1R
Put plainly: SPR Biacore, IgG captured, monomeric CSF1R analyte.

In test [2] the target is T2, monomeric cynomolgus monkey CSF1R ectodomain protein (cynomolgus monkey, UniProt P07333 20-517 (human entry)).
T2 construct: also called monomeric cyno CSF1R; Cyno CSF1R
T2 chain: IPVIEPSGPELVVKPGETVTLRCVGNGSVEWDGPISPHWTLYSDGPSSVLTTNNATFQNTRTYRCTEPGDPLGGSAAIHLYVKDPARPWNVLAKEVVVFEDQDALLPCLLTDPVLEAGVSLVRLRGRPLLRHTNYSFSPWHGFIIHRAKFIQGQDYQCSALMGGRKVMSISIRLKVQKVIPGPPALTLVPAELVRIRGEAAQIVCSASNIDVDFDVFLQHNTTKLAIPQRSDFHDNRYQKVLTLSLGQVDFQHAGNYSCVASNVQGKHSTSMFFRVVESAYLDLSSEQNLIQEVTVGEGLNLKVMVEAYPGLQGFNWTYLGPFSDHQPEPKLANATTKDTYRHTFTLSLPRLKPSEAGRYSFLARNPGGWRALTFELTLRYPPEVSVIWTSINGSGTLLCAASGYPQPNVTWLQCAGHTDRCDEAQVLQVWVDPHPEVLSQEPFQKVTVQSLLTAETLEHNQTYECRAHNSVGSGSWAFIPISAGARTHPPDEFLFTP
Put plainly: SPR Biacore, IgG captured, monomeric CSF1R analyte.

Test [3] has as its target T3, human CSF1R, membrane-presented on cells (human, UniProt P07333 20-972).
T3 construct: HEK-293 cells transiently transfected with human CSF1R (flow cytometry); the native receptor on primary human monocytes in the proliferation assay; also called human CSF1R+ HEK-293 cells; CSF1R on primary human CD14+ monocytes
Description: flow cytometry on HEK-293 cells expressing human CSF1R, MFI.

Test [4] deals with T4, cynomolgus monkey CSF1R human Fc tagged recombinant protein (cynomolgus monkey, UniProt P07333 20-517 (human entry), limits assumed).
T4 construct: also called cyno CSF1R-Fc
T4 chain: T2 chain
Put plainly: direct titration ELISA on coated cyno CSF1R-Fc, IgG4(S228P) format, OD 450 nm. On the procedure: (§1) Binding and cross-reactivity of the lead panel to the recombinant proteins was initially assessed by binding ELISA. The human CSF1R human Fc tagged recombinant protein and the cynomolgus monkey CSF1R human Fc tagged recombinant protein were coated to the surface of MaxiSorp™ flat-bottom 96 well plate at 1 μg/ml. The purified IgG samples were titrated in two fold serial dilutions starting from 500 nM to 0.008 nM and allowed to bind to the coated antigens. The Fabs were detected using mouse anti-c-myc antibody followed by donkey anti-mouse IgG conjugated to horseradish peroxidase. The IgGs were detected using the mouse anti-human IgG conjugated to horseradish peroxidase. Binding signals were visualized with 3,3′,5,5′-Tetramethylbenzidine Substrate Solution (TMB) and the absorbance measured at 450 nm.
(In general: An ELISA detects its analyte on a solid surface through an enzyme-linked reagent.)

Test [5] concerns the target T5, human CSF1R human Fc tagged recombinant protein (human, UniProt P07333 20-517).
T5 construct: also called human CSF1R-Fc
Put plainly: direct titration ELISA on coated human CSF1R-Fc, IgG4(S228P) format, OD 450 nm. The protocol: as §1

The target in test [6] is T1, monomeric human CSF1R ectodomain protein. Description: AlphaScreen competition with mu0301 IgG4(S228P) for biotinylated monomeric human CSF1R.
The target is the same in test [7]. Put plainly: SPR Biacore, IgG captured, monomeric CSF1R analyte. The source holds these as a separate data set.
Test [8] addresses T2, monomeric cynomolgus monkey CSF1R …. Description: SPR Biacore, IgG captured, monomeric CSF1R analyte. Background: Surface plasmon resonance follows binding to a sensor surface in real time, without labels.
The target of another test is T6, human insulin (human, UniProt P01308 25-54; P01308 90-110, limits assumed).
T6 construct: Coated antigen of the polyreactivity ('PK-risk indicator') ELISA
Description: ELISA on human insulin (development risk, polyreactivity), binding score.

The target in test [9] is T4, cynomolgus monkey CSF1R human Fc tagged …. Put plainly: direct titration ELISA on coated cyno CSF1R-Fc, IgG4(S228P) format, OD 450 nm. On the procedure:
as §1

Test [10] addresses T2, monomeric cynomolgus monkey CSF1R …. Put plainly: SPR Biacore; KD on monomeric cyno CSF1R against KD of the same antibody on monomeric human CSF1R as reference. The protocol:
Affinity (KD) of purified IgGs was determined via SPR with antigen in-solution on a Biacore 3000 (GE). A mouse anti-human antibody (CH1 specific) was immobilized on a CM5 Sensor Chip to a level of 2000 RU in acetate buffer at pH 4.5 using amine coupling following the Wizard instructions for two channels. One channel was used for background signal correction. The standard running buffer HBS-EP pH 7.4 was used. Regeneration was performed with a single injection of 10 μl of 10 mM Glycine at pH 1.5 at 20 μl/minute. IgG samples were injected for 2 minutes at 50 nM at 30 μl/min followed by and off-rate of 60 seconds. The monomeric ectodomain protein (human CSF1R or cynomolgus monkey CSF1R) was injected in two fold serial dilutions from 100 nM down to 3.1 nM, for 2 minutes at 30 μl/min followed by an off-rate of 300 seconds. The obtained sensorgrams were analysed using the Biacore 3000 evaluation (BIAevaluation) software. The KD was calculated by simultaneous fitting of the association and dissociation phases to a 1:1 Langmuir binding model.

We go through 2 molecules from US20210301026A1 (ULTRAHUMAN TWELVE, published 2021).

Residue numbers refer to the chain shown, from its start. Numbers in names are those of the source. Read-outs that look alike come from different tables or passages of the source.

T6 sequence (P01308 25-54 limits assumed, chain 1 of 2): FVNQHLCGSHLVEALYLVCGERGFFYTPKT
T6 sequence (P01308 90-110 limits assumed, chain 2 of 2): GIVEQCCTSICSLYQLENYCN

B1: 26B07 (antibody, human IgG4, V domains shown)
VH: QVQLVQSGAEVKKPGSSVKVSCKASGYTFSSYYMIWVRQAPGQGLEWMGDINPYNGGANYAQKFQGRVTITADESTSTAYMELSSLRSEDTAVYYCAREGPYFSNLYVMDYWGQGTLVTVSS
VL: EIVLTQSPATLSLSPGERATLSCRASQSVEYQGDNYLNWYQQKPGQAPRLLIYAASNRATGIPARFSGSGSGTDFTLTISSLEPEDFAVYYCQLSNEDLLTFGGGTKVEIK
notes: Library-derived clone, tested as human IgG4(S228P)/Ckappa IgG; framework residue limits counted on the grafts
Take B1: the dissociation constant (Kd) in test [1] turned out to be 0.29 nM; in test [2], 0.85 nM. The results for the koff in test [1] and in test [2] were 0.00042 s⁻¹ and 0.00026 s⁻¹, respectively. Moreover, the kon turned out to be 1.5e+06 M⁻¹ s⁻¹ in test [1] and 310000 M⁻¹ s⁻¹ in test [2]. Besides, the “EC50 (read off the curve)” value in [3] is about 1 nM; in [4] it was about 0.09 nM; in test [5], about 0.08 nM. For the same molecule, the half-maximal inhibitory concentration (IC50) in test [6] came to 2.56 nM.

B2: humanized anti-CSF1R antibody 0301 (hu0301) (antibody, human IgG4, V domains shown)
VH: B1 VH with S30T, S31D, Y32N, A58T, N59T, Y60F, A61N, Q65K, E74K, G100S
VL: B1 VL with R24K, E30D, Q32D, L37M, R58L, A59E, T60S, Q93H, L100S
notes: also called mAb-1
For B2, the equilibrium dissociation constant (Kd) in test [1] came out at 0.21 nM; in test [2], 0.66 nM; in test [7], 0.21 nM; in [8], 0.66 nM. The koff in test [1] was 0.00047 s⁻¹; in test [2] it was 0.00033 s⁻¹; in [7] it was 0.00047 s⁻¹; in [8], 0.00033 s⁻¹. The kon in test [1] stood at 2.3e+06 M⁻¹ s⁻¹; in test [2], 500000 M⁻¹ s⁻¹; in test [7], 2.3e+06 M⁻¹ s⁻¹; in test [8] it was 500000 M⁻¹ s⁻¹. The entries for the 50% effective concentration (EC50 (read off the curve)) in test [3], in test [4] and in test [9] were about 1 nM, about 0.08 nM and about 0.07 nM, respectively. In the test with human insulin, the binding result is recorded as “no binding”. The half-maximal inhibitory concentration (IC50) in test [6] was 2.38 nM. Further, in test [10], the human/cyno affinity differential was over 3 fold.

The Kd is a measure of binding affinity in units of concentration. Usually koff stands for a measure of how fast the partners let go of each other. A word on the kon: it is a measure of how fast the partners come together. The EC50 (read off the curve) is the midpoint of the concentration-response curve. Usually IC50 stands for the point on the concentration scale where inhibition reaches its midpoint.
